Molecular target: T1, noggin (Mus musculus, UniProt P97466)
T1 construct: purchased PeproTech; host or cells: E. coli
T1 sequence (P97466 with tags, fused parts or gaps): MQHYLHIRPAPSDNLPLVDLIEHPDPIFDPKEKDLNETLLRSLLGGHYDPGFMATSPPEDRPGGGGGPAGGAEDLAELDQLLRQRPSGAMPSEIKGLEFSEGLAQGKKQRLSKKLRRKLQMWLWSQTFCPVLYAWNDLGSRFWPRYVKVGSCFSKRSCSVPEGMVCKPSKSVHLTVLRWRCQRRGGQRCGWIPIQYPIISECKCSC
Experiment: Noggin inhibition of BMP-2 activity in C2C12 cells
Format: cell-based, murine
Conditions: during osteoblast differentiation of C2C12
Description: C2C12 Cell Culture: C2C12 mouse myoblasts (ATCC) were maintained in Dulbecco's Modified Eagle's Medium with high glucose and L-glutamine (DMEM, ATCC), supplemented with 100 U/mL of penicillin and 100 μg/mL streptomycin (P/S, Life Technologies) and 10% heat inactivated FBS (Life Technologies), and passaged at 80-90% confluence. Media was changed every 2 days. Passages 3 to 8 were used for experiments. Cells were grown at 37° C., 5% CO2 in a humidified atmosphere. Cells were detached following a 3 minute incubation at 37° C. with 0.05% Trypsin-EDTA (Life Technologies), then resuspended in DMEM (10% FBS). Unless stated otherwise, cells were seeded at 75,000 cells/mL (400 μL/well in a 48-well plate), and allowed to attach for a minimum of 3 hours prior to experiments.
C2C12 Osteoblast Differentiation: PA samples were thermally annealed as described for Cryo-TEM. PA solutions were spun down, pipetted for homogeneous mixing, then diluted to 1 mM with DMEM (no FBS). […] Cells were cultured for 3 days without changing the media, and osteoblast differentiation was assessed.
Alkaline Phosphatase Activity: Alkaline phosphatase (ALP) activity was measured as a marker of osteoblast differentiation (ref. 38; incorporated by reference in its entirety). […] The ALP activity was assessed by reading the OD at 630 nm with Cytation3 microplate reader (BioTek). […]

3,4,6S-GlcNAc PA (VVAAEEK) [PA 1, glycosylated peptide amphiphile: Alkyne PA click-conjugated with trisulfated monosaccharide 1]
protection of BMP-2 from noggin antagonist: successfully protected

From patent US11497788B2, “Supramolecular glycosaminoglycans” (Northwestern University, priority 2015, dated 2022)
